Data set [1] concerns the molecule itself. As to the kind of experiment: SEC; analytical gel filtration, Superose 6 HR column; 0.25 mg protein injected; 20 mM Tris/HCl pH 8.0, 200 mM NaCl; calibrated with standards of 29-669 kDa. In general terms: SEC sorts molecules by how far they enter the pores of the column.
Substrate in data set [2]: NC(=O)NC(=O)O
As to the kind of experiment: glutamate dehydrogenase-coupled NADH assay of ammonium. Particulars: AH activity, 6 mM MgCl2, 20 mM KCl, pH 8.0, substrate as potassium salt, mutation at AH dimer interface. It counts as biochemical, Kluyveromyces lactis. An excerpt:
(§1) glutamate dehydrogenase-coupled NADH assay of ammonium on KlUA

Substrate in data set [3]: NC(N)=O
The description is as above. It counts as biochemical, Kluyveromyces lactis. Particulars: overall UA activity, 5 mM ATP, 12.5 mM bicarbonate, 11 mM MgCl2, 20 mM KCl.
Description: as §1

[4] abbreviates: pH 8.0, mutation at AH dimer interface.
[5] abbreviates: pH 8.0, mutation in AH N domain active site.
Where [6] appears, read: pH 8.0, mutation in UC CT active site.

Numbering of substitutions follows the chain as printed. Numbers in names are those of the source.

Usually stoichiometry N stands for the number of molecules, sites or subunits per partner or assembly. A word on the Km: it is the concentration of substrate that gives half-maximal velocity. In general, kcat refers to the maximal rate divided by the concentration of active sites. For orientation: kcat/Km means the turnover number divided by the Michaelis constant.

B1: KlUAΔBCCP (Kluyveromyces lactis urea amidolyase residues 1-1741, BCCP domain removed) (domain or fragment, UniProt Q6CP22 1-1741, looked up)
chain: MESTLGWSVQDWLSFHSKSTPTKSLELLENLLKSQKPAPEDPAWISLIPVEDLHHQWNILQSKSNKEELPLYGVPIAVKDNIDYKGLPTTAACPSYLYQPTRDSYVVELLRDAGAVVIGKTNLDQFATGLVGTRSPYGKTPCVFNDKYVSGGSSAGSASVVGRGIVPLSLGTDTAGSGRVPAALNNLIGLKPTKGAFSCRGVVPACKSLDCVSVFALNLSDAEIAFKVMNKPDLLEDEYSREFPKNPISQYPKDLTIAIPKEVPWFGETENPKLYTKAVASLKNTGAKIVVVDFEPLLELARCLYEGAWVAERYCATRDFLATNPPESSLDETVVNIIKGAVKFDAADAFKFEYKRQGILQKVNLLLKDIDVLCVPTCPLNPKLEEVAQEPVLVNSRQGTWTNFVNLADLAALAVPSGFRSDGLPNGITLIGKKFSDYALLDLAKRFFSVAFPNNSRTYGKFVDRRITVEDELDGPSKDTLNGVKLAVVGAHLKGLPLHWQLQKCNATYLSSPKTSNNYKLYALPKVGPVLKPGLRRVNDGTGSQIQLEVYSVPYDRFGDFIAMVPEPLGIGSVELESGEWVKSFICEEFGYTQQGTVDITKFGGFKPYIEHIQVTEAQKKKPFETVLIANRGEIAVRIMKTLKRMGIKSVAVYSDPDKYSQHVTDADFSVALHGRTAAETYLDIDKIINAAKKTGAQAIIPGYGFLSENADFSDRCSQENIVFVGPSGDAIRKLGLKHSAREIAERAKVPLVPGSGLIKDAKEAKEVAKKLEYPVMVKSTAGGGGIGLQKVDSEDDIERVFETVQHQGKSYFGDAGVFMERFVNNARHVEIQMMGDGFGKAIAIGERDCSLQRRNQKVIEETPAPNLPEATRAKMRAASERLGSLLKYKCAGTVEFIYDEQRDEFYFLEVNARLQVEHPITEMVTGLDLVEWMLRIAANDSPDFDNTKIEVSGASIEARLYAENPVKDFRPSPGQLTSVSFPSWARVDTWVKKGTNVSAEYDPTLAKIIVHGKDRNDAIMKLNQALNETAVYGCITNIDYLRSIASSKMFKEAKVATKVLDSFDYKPCAFEVLAPGANTSVQDYPGRTGYWRIGVPPSGPMDSYSFRLANRVVGNNSKSPALEITLNGPKLLFHTETVIAVSGGTVSCTLNDAQIAQNEPIEVKRGDILSVGKVTVGCRAYLSIRGGIDVPEYLGSRSTFAMGNMGGYNGRILKLGDVLFLNQPELSVSSLPAPDFEPQAAPKSLLPTLSTNKDWKIGVTCGPHGSIDLFKEEYIEQFFNDKWKVHYNSNRFGVRLIGPKPKWARSDGGEAGLHPSNAHDYVYSLGAINFTGDEPVIITCDGPSLGGFVCQAVVAEAELWKVGQLTPGDTIQFVPLSYGVARQLKESQDKSIDNFEEGSLLELSDDKILPKYENPILAVLPKKSDLSPKVTYRQAGDRYILVEYGELEFDLNICYRINRLIHQVERHQTVGIVEMSQGVRSVLIEFDGSKINQKALLKCLIAYESEIQFDKNWNVKSKIFKLPMAFEDSKTLDCVTRYRETIRSEAPWLPNNVDFIADVNDIDRNDVKNMLYSAKFMVLGLGDVFLGSPCAVPLDPRHRYLGTKYNPSRTYTARGVVGIGGMYMCIYNAEGSPGGYQLVGRTITAWDKLVIGDHPIDHPWLLTPFDQVEFYPVTEEELEVIIEDNDNGKFKIDVEESIFDHKEYLAWINENIDSIVAFQEAQGGEKADEFARLIQVANAE
notes: urea amidolyase of Kluyveromyces lactis, residues 1-1741 (stop codon inserted after base pair 5223); lacks the C-terminal BCCP domain; monomer 190 kDa; also called KIUAΔBCCP; source: E. coli BL21 (DE3) Star, purified (Ni-NTA, anion exchange, size exclusion)
For B1, the “stoichiometry N” value in data set [1] amounted to 2.

B2: KlUA (Kluyveromyces lactis NRRL Y-1140; G559E/G572E) (protein)
chain: MESTLGWSVQDWLSFHSKSTPTKSLELLENLLKSQKPAPEDPAWISLIPVEDLHHQWNILQSKSNKEELPLYGVPIAVKDNIDYKGLPTTAACPSYLYQPTRDSYVVELLRDAGAVVIGKTNLDQFATGLVGTRSPYGKTPCVFNDKYVSGGSSAGSASVVGRGIVPLSLGTDTAGSGRVPAALNNLIGLKPTKGAFSCRGVVPACKSLDCVSVFALNLSDAEIAFKVMNKPDLLEDEYSREFPKNPISQYPKDLTIAIPKEVPWFGETENPKLYTKAVASLKNTGAKIVVVDFEPLLELARCLYEGAWVAERYCATRDFLATNPPESSLDETVVNIIKGAVKFDAADAFKFEYKRQGILQKVNLLLKDIDVLCVPTCPLNPKLEEVAQEPVLVNSRQGTWTNFVNLADLAALAVPSGFRSDGLPNGITLIGKKFSDYALLDLAKRFFSVAFPNNSRTYGKFVDRRITVEDELDGPSKDTLNGVKLAVVGAHLKGLPLHWQLQKCNATYLSSPKTSNNYKLYALPKVGPVLKPGLRRVNDGTGSQIQLEVYSVPYDRFEDFIAMVPEPLGIESVELESGEWVKSFICEEFGYTQQGTVDITKFGGFKPYIEHIQVTEAQKKKPFETVLIANRGEIAVRIMKTLKRMGIKSVAVYSDPDKYSQHVTDADFSVALHGRTAAETYLDIDKIINAAKKTGAQAIIPGYGFLSENADFSDRCSQENIVFVGPSGDAIRKLGLKHSAREIAERAKVPLVPGSGLIKDAKEAKEVAKKLEYPVMVKSTAGGGGIGLQKVDSEDDIERVFETVQHQGKSYFGDAGVFMERFVNNARHVEIQMMGDGFGKAIAIGERDCSLQRRNQKVIEETPAPNLPEATRAKMRAASERLGSLLKYKCAGTVEFIYDEQRDEFYFLEVNARLQVEHPITEMVTGLDLVEWMLRIAANDSPDFDNTKIEVSGASIEARLYAENPVKDFRPSPGQLTSVSFPSWARVDTWVKKGTNVSAEYDPTLAKIIVHGKDRNDAIMKLNQALNETAVYGCITNIDYLRSIASSKMFKEAKVATKVLDSFDYKPCAFEVLAPGANTSVQDYPGRTGYWRIGVPPSGPMDSYSFRLANRVVGNNSKSPALEITLNGPKLLFHTETVIAVSGGTVSCTLNDAQIAQNEPIEVKRGDILSVGKVTVGCRAYLSIRGGIDVPEYLGSRSTFAMGNMGGYNGRILKLGDVLFLNQPELSVSSLPAPDFEPQAAPKSLLPTLSTNKDWKIGVTCGPHGSIDLFKEEYIEQFFNDKWKVHYNSNRFGVRLIGPKPKWARSDGGEAGLHPSNAHDYVYSLGAINFTGDEPVIITCDGPSLGGFVCQAVVAEAELWKVGQLTPGDTIQFVPLSYGVARQLKESQDKSIDNFEEGSLLELSDDKILPKYENPILAVLPKKSDLSPKVTYRQAGDRYILVEYGELEFDLNICYRINRLIHQVERHQTVGIVEMSQGVRSVLIEFDGSKINQKALLKCLIAYESEIQFDKNWNVKSKIFKLPMAFEDSKTLDCVTRYRETIRSEAPWLPNNVDFIADVNDIDRNDVKNMLYSAKFMVLGLGDVFLGSPCAVPLDPRHRYLGTKYNPSRTYTARGVVGIGGMYMCIYNAEGSPGGYQLVGRTITAWDKLVIGDHPIDHPWLLTPFDQVEFYPVTEEELEVIIEDNDNGKFKIDVEESIFDHKEYLAWINENIDSIVAFQEAQGGEKADEFARLIQVANAELKKSGDDKPQDVEEYPDDAELLYSEYTGRFWKPVAAVGDHVEAGDGVIIIEAMKTEMVVGATKSGKVYKILHKNGDMVEAGDLVAVIV
notes: full-length enzyme, AH + UC domains; recombinant in E. coli BL21(DE3) Star (pET28A, nickel column); homodimer, monomer 202 kDa
On to B2, for which, in data set [2], the Km was 1040 ± 183 µM, the kcat was found to be 7.85 ± 0.367 s⁻¹ and the catalytic efficiency (kcat/Km) is 7550 ± 1680 M⁻¹ s⁻¹. Also, in data set [3] (setting [4]), the Michaelis constant (Km) amounted to 361 ± 32 µM, the catalytic constant (kcat) turned out to be 3 ± 0.0533 s⁻¹ and the kcat/Km worked out at 8320 ± 900 M⁻¹ s⁻¹.

B3: KlUA (Kluyveromyces lactis NRRL Y-1140; S177A) (protein)
chain: B2 chain with S177A, E559G, E572G
notes: as for B2
Regarding B3, in data set [3] (setting [5]), the Km is 203 ± 20 µM, the catalytic constant (kcat) is 0.785 ± 0.0133 s⁻¹ and the kcat/Km came out at 3870 ± 450 M⁻¹ s⁻¹.

B4: KlUA (Kluyveromyces lactis NRRL Y-1140; K1605A) (protein)
chain: B2 chain with E559G, E572G, K1605A
notes: as for B2
For the protein B4, in data set [3] (setting [6]), the Km is 299 ± 39 µM, the catalytic constant (kcat) worked out at 1.33 ± 0.0333 s⁻¹ and the kcat/Km was 4450 ± 683 M⁻¹ s⁻¹.

The values are drawn from article PMC5770610, “Structure and function of urea amidolyase” (Bioscience Reports, 2018).
